In US8278109:

Experiments:
[1] = biological target: JEG-3 derived purified hCG-H (human) (UniProt P01215); test: SPR (Biacore); 7 injections of B152 at 20-100 micrograms/ml over JEG-3 hCG-H; lower end
[2] = biological target: JEG-3 derived purified hCG-H (human) (UniProt P01215); test: SPR (Biacore); 7 injections of B152 at 20-100 micrograms/ml over JEG-3 hCG-H; at 100 micrograms/ml
[3] = biological target: JEG-3 derived purified hCG-H (human) (UniProt P01215); test: SPR (Biacore); B152 concentration (100 micrograms/ml) giving 223 RU on hCG-H compared with SMA 3E8 and SMA 4D8

Sequence of UniProt P01215 (P01215 25-116, chain 1 of 2, other chains not shown): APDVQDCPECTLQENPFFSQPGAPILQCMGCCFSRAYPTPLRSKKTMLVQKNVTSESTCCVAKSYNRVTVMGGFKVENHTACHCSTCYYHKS

response [1]: 60 RU
response [2]: 223 RU
fold antibody concentration needed for the response, against SMA 3E8 and SMA 4D8 [3]: 50 to 100 fold
Substance: B152 (antibody)
